Results from patent publication US20140120095A1 (Boehringer Ingelheim, published 2014).

T1: recombinant human VEGF121 (R&D Systems) (human, UniProt P15692-9 27-147)
T1 construct: also called rhVEGF121
T1 sequence (looked up): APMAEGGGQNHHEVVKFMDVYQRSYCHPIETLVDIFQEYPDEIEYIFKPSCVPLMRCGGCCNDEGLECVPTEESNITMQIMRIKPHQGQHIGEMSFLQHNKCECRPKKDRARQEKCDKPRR

T2: recombinant mouse VEGF164 (R&D Systems) (mouse, UniProt Q00731-2 27-190)
T2 construct: also called rmVEGF164; mVEGF164
T2 sequence (looked up): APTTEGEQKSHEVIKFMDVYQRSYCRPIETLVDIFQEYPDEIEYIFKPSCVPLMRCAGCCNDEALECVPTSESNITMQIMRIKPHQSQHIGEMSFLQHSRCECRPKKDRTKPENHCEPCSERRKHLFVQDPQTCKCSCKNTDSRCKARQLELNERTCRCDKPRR

T3: VEGFB (UniProt P49765-2 22-188, limits assumed)
T3 sequence (looked up): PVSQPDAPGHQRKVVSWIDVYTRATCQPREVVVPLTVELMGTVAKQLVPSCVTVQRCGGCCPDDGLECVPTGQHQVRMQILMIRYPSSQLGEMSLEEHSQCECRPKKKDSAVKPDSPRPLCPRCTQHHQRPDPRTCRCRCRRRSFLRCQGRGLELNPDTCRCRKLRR

T4: VEGFD (UniProt O43915 93-201, limits assumed)
T4 sequence (looked up): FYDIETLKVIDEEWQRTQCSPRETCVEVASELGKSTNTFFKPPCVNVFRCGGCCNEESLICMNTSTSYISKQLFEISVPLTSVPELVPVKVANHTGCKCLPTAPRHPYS

T5: VEGFC (UniProt P49767 103-227, limits assumed)
T5 sequence (looked up): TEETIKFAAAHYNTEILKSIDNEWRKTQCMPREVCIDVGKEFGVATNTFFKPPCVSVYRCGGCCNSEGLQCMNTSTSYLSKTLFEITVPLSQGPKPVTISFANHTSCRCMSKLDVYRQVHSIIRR

T6: PIGF (UniProt P49763-2 21-149, limits assumed)
T6 construct: also called placenta growth factor
T6 sequence (looked up): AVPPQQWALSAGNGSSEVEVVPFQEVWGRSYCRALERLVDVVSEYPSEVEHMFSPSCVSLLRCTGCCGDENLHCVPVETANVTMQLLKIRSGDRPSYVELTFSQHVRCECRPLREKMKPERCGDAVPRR


Tests used:
[1] = target: T7, recombinant human VEGF165 (human, UniProt P15692-4 27-191, biotinylated in the competition assays); assay: SPR (Biacore), immobilised VEGF165, Two State Reaction model
T7 construct: also called hVEGF165; rhVEGF165
Experimental: (§1) Samples are injected for 2 min and allowed to dissociate up to 20 min at a flow rate of 45 μl/min. In between sample injections, the chip surface is regenerated with 100 mM HCl. HBS-EP+(Hepes buffer pH7.4+EDTA) is used as running buffer. Binding curves are fitted using a Two State Reaction model by Biacore T100 Evaluation Software v2.0.1.
^{(a)}Heterogeneous binding curve resulting in no 1:1 fit, curves are fitted using a Two State Reaction model by Biacore T100 Evaluation Software v2.0.1

[2] = target: T7, recombinant human VEGF165; assay: competition ELISA, biotinylated VEGF165 to coated VEGFR1-Fc
[3] = target: T7, recombinant human VEGF165; assay: competition ELISA, biotinylated VEGF165 to coated VEGFR2-Fc
[4] = target: T1, recombinant human VEGF121 (R&D Systems); assay: binding ELISA, coated recombinant human VEGF121
Experimental: Binding to recombinant human VEGF121 is assessed via a solid phase binding ELISA. […] Wells are blocked with a casein solution (1% in PBS).

[5] = target: T7, recombinant human VEGF165; assay: binding ELISA, coated rhVEGF165
[6] = target: T7, recombinant human VEGF165; assay: competition AlphaScreen, bio-VEGF165 and VEGFR2-Fc
Experimental: (§2) Finally, streptavidin donor beads (20 μg/ml) are added and after 1 hour of incubation in the dark, fluorescence is measured on the Envision microplate reader.

[7] = target: T7, recombinant human VEGF165; assay: competition AlphaScreen, bio-VEGF165 and VEGFR1-Fc
Experimental: as §2

[8] = target: T7, recombinant human VEGF165; assay: SPR (Biacore), periplasmic extract over immobilised VEGF165, two phase decay fit
Experimental: Dissociation rates of receptor-blocking VHHs are analyzed on Biacore (Biacore T100 instrument, GE Healthcare). HBS-EP+buffer is used as running buffer and experiments are performed at 25° C. […] After immobilization, surfaces are deactivated with 10 min injection of 1M ethanolamine pH8.5. […] Periplasmic extracts of VHHs are injected at a 10-fold dilution in running buffer for 2 min at 45 μl/min and allowed to dissociate for 10 or 15 min. Between different samples, the surfaces are regenerated with regeneration buffer. Data are double referenced by subtraction of the curves on the reference channel and of a blank running buffer injection. The dissociation phase of the processed curves is evaluated by fitting a two phase decay model in the Biacore T100 Evaluation software v2.0.1.

[9] = target: T2, recombinant mouse VEGF164 (R&D Systems); assay: binding ELISA, coated rmVEGF164
Experimental: Cross-reactivity to mouse VEGF164 is determined using a binding ELISA. […] Wells are blocked with a casein solution (1% in PBS). […] A mouse VEGF164 reactive mAb is included as positive control.

VEGFB = target: T3, VEGFB; assay: solid phase binding ELISA, 500 nM-32 pM VHH
Experimental: (§3) Binding to VEGFB, VEGFC, VEGFD and PIGF is assessed via a solid phase binding ELISA. […] Wells are blocked with a casein solution (1% in PBS). […] As positive controls serial dilutions of the appropriate receptors are taken along and detected with horseradish peroxidase (HRP)-conjugated goat anti-human IgG, Fc specific antibody (Jackson Immuno Research Laboratories Inc., West Grove, Pa., USA) and a subsequent enzymatic reaction in the presence of the substrate TMB (3,3′,5,5′-tetramentylbenzidine) (Pierce, Rockford, Ill., USA).

VEGFD = target: T4, VEGFD; assay: solid phase binding ELISA, 500 nM-32 pM VHH
Experimental: as §3

VEGFC = target: T5, VEGFC; assay: solid phase binding ELISA, 500 nM-32 pM VHH
Experimental: as §3

PIGF = target: T6, PIGF; assay: solid phase binding ELISA, 500 nM-32 pM VHH
Experimental: as §3

[10] = target: T8, recombinant human VEGF165 (human, UniProt P15692-4 27-191, biotinylated in the competition assays); assay: ProteOn off-rate assay, periplasmic extract on coated hVEGF165
T8 construct: Bought protein; also called hVEGF165; rhVEGF165
Experimental: One additional variant is constructed in which the potential oxidation site at position M30 (CDR1 region, see FIG. 38 indicated as bold italic residue) is removed by introduction of a M30I mutation. […] Off-rates are calculated and compared to the off-rates of the parental VEGFBII5B05.

[11] = target: T8, recombinant human VEGF165; assay: SPR Biacore, hVEGF165
Experimental: as §1

Binder	Kd [1]	IC50 [2]	IC50 [3]	EC50 [4]	EC50 [5]	IC50 [6]	IC50 [7]	kd (fast) [8]	kd (slow) [8]	binding result (VEGFB)	binding result (VEGFD)	binding result (VEGFC)	binding result (PIGF)	binding level (RU) [10]	koff [10]	Kd [11]	binding result [9]
VEGFBII23B04 (VHH, not shown: small tags and cut ends, also called VEGFBII23B4) VHH: EVQLVESGGGLVQTGDSLRLSCEVSGRTFSSYSMGWFRQAQGKEREFVVAISKGGYKYDSVSLEGRFTISKDNAKNTVYLQINSLKPEDTAVYYCASSRAYGSSRLRLADTYEYWGQGTQVTVSS	700 pM	500 pM	2100 pM	510 pM	297 pM	160 pM	900 pM	0.0088	4e-05	–	–	–	–	–	–	–	no binding (tested: dilution series 500 nM-32 pM)
VEGFBII23A06 (VHH, not shown: small tags and cut ends) VHH: EVQLVESGGGLVQPGDSLKLSCAFSGRTFSSYSMGWFRQAQGKEREFVVAISSGGFIYDAVSLEGRFTISRDNTKNTVYLQTPSLKPEDTAVYYCAASRAYGSSRLRLADTYDYWGQGTQVTVSS	700 pM	900 pM	3000 pM	928 pM	531 pM	250 pM	400 pM	0.017	3.7e-05	–	–	–	–	–	–	–	no binding (tested: dilution series 500 nM-32 pM)
VEGFBII5B05 (VHH, also called VEGFBII05B05; VEGFBII5B05(wt)) VHH: EVQLVESGGGLVQPGGSLRLSCVASGIRFMSMAWYRQAPGKHRELVARISSGGTTAYVDSVKGRFTISRDNSKNTVYLQMNSLKAEDTAVYYCNTFSSRPNPWGAGTQVTVSS	–	–	–	–	–	–	–	–	–	–	–	–	–	242 RU	0.0615 s⁻¹	32000 pM	–

Second part, led by results:

Kd [1]	IC50 [2]	IC50 [3]	EC50 [4]	EC50 [5]	IC50 [6]	IC50 [7]	kd (fast) [8]	kd (slow) [8]	binding result (VEGFB)	binding result (VEGFD)	binding result (VEGFC)	binding result (PIGF)	binding level (RU) [10]	koff [10]	Kd [11]	Binder	binding result [9]
–	–	–	–	–	–	–	–	–	no binding (tested: 500 nM)	no binding (tested: 500 nM)	no binding (tested: 500 nM)	no binding (tested: 500 nM)	–	–	–	VEGFBII23B04 (VHH, also called VEGFBII23B4) VHH: EVQLVESGGGLVQTGDSLRLSCEVSGRTFSSYSMGWFRQAQGKEREFVVAISKGGYKYDSVSLEGRFTISKDNAKNTVYLQINSLKPEDTAVYYCASSRAYGSSRLRLADTYEYWGQGTQVTVSS	–
–	–	–	–	–	–	–	–	–	no binding (tested: 500 nM)	no binding (tested: 500 nM)	no binding (tested: 500 nM)	no binding (tested: 500 nM)	–	–	–	VEGFBII23A06 (VHH) VHH: EVQLVESGGGLVQPGDSLKLSCAFSGRTFSSYSMGWFRQAQGKEREFVVAISSGGFIYDAVSLEGRFTISRDNTKNTVYLQTPSLKPEDTAVYYCAASRAYGSSRLRLADTYDYWGQGTQVTVSS	–
